# Assay results: US12679878B2, “CRF2 receptor agonists and their use in therapy” (SANOFI, priority 2020, dated 2026)
# Starred links: 1 amine or outer side, 2 acyl side, 3 side chain; linkers in the order of their positions; H or OH if unused. Non-standard residues stand in square brackets, D forms with d. Groups on a side chain read outwards from the residue. No end group written: not given here. *: point of attachment. C18 diacid = O=C(O)CCCCCCCCCCCCCCCCC(=O)*; γGlu = O=C(O)[C@H](CCC(=O)[*:2])N[*:1]; Palmitoyl = CCCCCCCCCCCCCCCC(=O)*; AEEA = NCCOCCOCC(=O)O; Aib = CC(C)(N)C(=O)O
# Target: human corticotropin-releasing factor 2α (CRF2 α receptor) (human), Q13324
# Sequence (Q13324 20-411): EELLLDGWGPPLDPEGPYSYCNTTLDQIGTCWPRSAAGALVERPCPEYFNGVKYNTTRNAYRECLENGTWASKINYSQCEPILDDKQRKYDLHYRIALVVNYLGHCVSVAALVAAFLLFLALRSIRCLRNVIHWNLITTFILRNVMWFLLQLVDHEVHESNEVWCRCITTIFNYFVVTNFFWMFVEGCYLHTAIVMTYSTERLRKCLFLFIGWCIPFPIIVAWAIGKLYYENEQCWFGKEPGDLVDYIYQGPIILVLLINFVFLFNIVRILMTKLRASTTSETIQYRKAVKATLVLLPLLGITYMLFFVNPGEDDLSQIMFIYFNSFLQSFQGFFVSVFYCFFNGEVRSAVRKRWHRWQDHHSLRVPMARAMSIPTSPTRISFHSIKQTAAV
# Test: cell-based or functional assay
row,"EC50 [nM], 0% HSA",Binder
1,0.09 nM,IVLSLD[dV]PTKLK([γGlu-Palmitoyl])KKLLKQERKRKEREKAEKNARILERV-NH2 (N-terminus assumed; SMILES CCCCCCCCCCCCCCCC(=O)N[C@@H](CCC(=O)NCCCC[C@H](NC(=O)[C@H](CC(C)C)NC(=O)[C@H](CCCCN)NC(=O)[C@@H](NC(=O)[C@@H]1CCCN1C(=O)[C@H](NC(=O)[C@H](CC(=O)O)NC(=O)[C@H](CC(C)C)NC(=O)[C@H](CO)NC(=O)[C@H](CC(C)C)NC(=O)[C@@H](NC(=O)[C@@H](N)[C@@H](C)CC)C(C)C)C(C)C)[C@@H](C)O)C(=O)N[C@@H](CCCCN)C(=O)N[C@@H](CCCCN)C(=O)N[C@@H](CC(C)C)C(=O)N[C@@H](CC(C)C)C(=O)N[C@@H](CCCCN)C(=O)N[C@@H](CCC(N)=O)C(=O)N[C@@H](CCC(=O)O)C(=O)N[C@@H](CCCNC(=N)N)C(=O)N[C@@H](CCCCN)C(=O)N[C@@H](CCCNC(=N)N)C(=O)N[C@@H](CCCCN)C(=O)N[C@@H](CCC(=O)O)C(=O)N[C@@H](CCCNC(=N)N)C(=O)N[C@@H](CCC(=O)O)C(=O)N[C@@H](CCCCN)C(=O)N[C@@H](C)C(=O)N[C@@H](CCC(=O)O)C(=O)N[C@@H](CCCCN)C(=O)N[C@@H](CC(N)=O)C(=O)N[C@@H](C)C(=O)N[C@@H](CCCNC(=N)N)C(=O)N[C@H](C(=O)N[C@@H](CC(C)C)C(=O)N[C@@H](CCC(=O)O)C(=O)N[C@@H](CCCNC(=N)N)C(=O)N[C@H](C(N)=O)C(C)C)[C@@H](C)CC)C(=O)O) [SEQ ID NO: 25]
2,6.95 nM,IVLSLD[dV]PTKLK([AEEA-AEEA-γGlu-C18 diacid])QKLLKQERQRKEREQAEKNKRILERV-NH2 (N-terminus assumed; SMILES CC[C@H](C)[C@H](N)C(=O)N[C@H](C(=O)N[C@@H](CC(C)C)C(=O)N[C@@H](CO)C(=O)N[C@@H](CC(C)C)C(=O)N[C@@H](CC(=O)O)C(=O)N[C@@H](C(=O)N1CCC[C@H]1C(=O)N[C@H](C(=O)N[C@@H](CCCCN)C(=O)N[C@@H](CC(C)C)C(=O)N[C@@H](CCCCNC(=O)COCCOCCNC(=O)COCCOCCNC(=O)CC[C@H](NC(=O)CCCCCCCCCCCCCCCCC(=O)O)C(=O)O)C(=O)N[C@@H](CCC(N)=O)C(=O)N[C@@H](CCCCN)C(=O)N[C@@H](CC(C)C)C(=O)N[C@@H](CC(C)C)C(=O)N[C@@H](CCCCN)C(=O)N[C@@H](CCC(N)=O)C(=O)N[C@@H](CCC(=O)O)C(=O)N[C@@H](CCCNC(=N)N)C(=O)N[C@@H](CCC(N)=O)C(=O)N[C@@H](CCCNC(=N)N)C(=O)N[C@@H](CCCCN)C(=O)N[C@@H](CCC(=O)O)C(=O)N[C@@H](CCCNC(=N)N)C(=O)N[C@@H](CCC(=O)O)C(=O)N[C@@H](CCC(N)=O)C(=O)N[C@@H](C)C(=O)N[C@@H](CCC(=O)O)C(=O)N[C@@H](CCCCN)C(=O)N[C@@H](CC(N)=O)C(=O)N[C@@H](CCCCN)C(=O)N[C@@H](CCCNC(=N)N)C(=O)N[C@H](C(=O)N[C@@H](CC(C)C)C(=O)N[C@@H](CCC(=O)O)C(=O)N[C@@H](CCCNC(=N)N)C(=O)N[C@H](C(N)=O)C(C)C)[C@@H](C)CC)[C@@H](C)O)C(C)C)C(C)C) [SEQ ID NO: 24]
3,0.01 nM,IVLSLD[dV]PTKLK([γGlu-Palmitoyl])KKLLKQERKRKERE[Aib]AEKNARILERV-NH2 (N-terminus assumed; SMILES CCCCCCCCCCCCCCCC(=O)N[C@@H](CCC(=O)NCCCC[C@H](NC(=O)[C@H](CC(C)C)NC(=O)[C@H](CCCCN)NC(=O)[C@@H](NC(=O)[C@@H]1CCCN1C(=O)[C@H](NC(=O)[C@H](CC(=O)O)NC(=O)[C@H](CC(C)C)NC(=O)[C@H](CO)NC(=O)[C@H](CC(C)C)NC(=O)[C@@H](NC(=O)[C@@H](N)[C@@H](C)CC)C(C)C)C(C)C)[C@@H](C)O)C(=O)N[C@@H](CCCCN)C(=O)N[C@@H](CCCCN)C(=O)N[C@@H](CC(C)C)C(=O)N[C@@H](CC(C)C)C(=O)N[C@@H](CCCCN)C(=O)N[C@@H](CCC(N)=O)C(=O)N[C@@H](CCC(=O)O)C(=O)N[C@@H](CCCNC(=N)N)C(=O)N[C@@H](CCCCN)C(=O)N[C@@H](CCCNC(=N)N)C(=O)N[C@@H](CCCCN)C(=O)N[C@@H](CCC(=O)O)C(=O)N[C@@H](CCCNC(=N)N)C(=O)N[C@@H](CCC(=O)O)C(=O)NC(C)(C)C(=O)N[C@@H](C)C(=O)N[C@@H](CCC(=O)O)C(=O)N[C@@H](CCCCN)C(=O)N[C@@H](CC(N)=O)C(=O)N[C@@H](C)C(=O)N[C@@H](CCCNC(=N)N)C(=O)N[C@H](C(=O)N[C@@H](CC(C)C)C(=O)N[C@@H](CCC(=O)O)C(=O)N[C@@H](CCCNC(=N)N)C(=O)N[C@H](C(N)=O)C(C)C)[C@@H](C)CC)C(=O)O) [SEQ ID NO: 26]
4,0.01 nM,IVLSLD[dV]PTKLK([γGlu-Palmitoyl])KKLLKQERKRKEREQAEKNARILERV-NH2 (N-terminus assumed; SMILES CCCCCCCCCCCCCCCC(=O)N[C@@H](CCC(=O)NCCCC[C@H](NC(=O)[C@H](CC(C)C)NC(=O)[C@H](CCCCN)NC(=O)[C@@H](NC(=O)[C@@H]1CCCN1C(=O)[C@H](NC(=O)[C@H](CC(=O)O)NC(=O)[C@H](CC(C)C)NC(=O)[C@H](CO)NC(=O)[C@H](CC(C)C)NC(=O)[C@@H](NC(=O)[C@@H](N)[C@@H](C)CC)C(C)C)C(C)C)[C@@H](C)O)C(=O)N[C@@H](CCCCN)C(=O)N[C@@H](CCCCN)C(=O)N[C@@H](CC(C)C)C(=O)N[C@@H](CC(C)C)C(=O)N[C@@H](CCCCN)C(=O)N[C@@H](CCC(N)=O)C(=O)N[C@@H](CCC(=O)O)C(=O)N[C@@H](CCCNC(=N)N)C(=O)N[C@@H](CCCCN)C(=O)N[C@@H](CCCNC(=N)N)C(=O)N[C@@H](CCCCN)C(=O)N[C@@H](CCC(=O)O)C(=O)N[C@@H](CCCNC(=N)N)C(=O)N[C@@H](CCC(=O)O)C(=O)N[C@@H](CCC(N)=O)C(=O)N[C@@H](C)C(=O)N[C@@H](CCC(=O)O)C(=O)N[C@@H](CCCCN)C(=O)N[C@@H](CC(N)=O)C(=O)N[C@@H](C)C(=O)N[C@@H](CCCNC(=N)N)C(=O)N[C@H](C(=O)N[C@@H](CC(C)C)C(=O)N[C@@H](CCC(=O)O)C(=O)N[C@@H](CCCNC(=N)N)C(=O)N[C@H](C(N)=O)C(C)C)[C@@H](C)CC)C(=O)O) [SEQ ID NO: 27]
